# Source: article PMC12416549 (2024)
# T1: TNFR1 (Homo sapiens, UniProt P19438)
# T1 chain: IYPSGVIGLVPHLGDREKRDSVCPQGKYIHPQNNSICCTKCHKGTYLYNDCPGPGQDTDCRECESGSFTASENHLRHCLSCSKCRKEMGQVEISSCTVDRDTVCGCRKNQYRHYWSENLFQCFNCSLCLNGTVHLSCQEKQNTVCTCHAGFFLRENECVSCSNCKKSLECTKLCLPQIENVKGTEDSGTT
# Target: T1, TNFR1
# Test: yeast display SC50
row,apparent Kd (screen) [nM],Binder
1,0.593,K27Q (designed binder) SMEEEVEKAAKEYEKKKKEAIEKHLEQLKAKDKEAAERFLKELEEAAKEYAKDEAKTMSEEEAKRRAKKYKEKVLLSELSEEEQKEIKEAEEKLVRTILKYVEEAAK
2,0.593,K11V (designed binder) SMEEEVEKAAVEYEKKKKEAIEKHLEKLKAKDKEAAERFLKELEEAAKEYAKDEAKTMSEEEAKRRAKKYKEKVLLSELSEEEQKEIKEAEEKLVRTILKYVEEAAK
3,0.49,A90W (designed binder) SMEEEVEKAAKEYEKKKKEAIEKHLEKLKAKDKEAAERFLKELEEAAKEYAKDEAKTMSEEEAKRRAKKYKEKVLLSELSEEEQKEIKEWEEKLVRTILKYVEEAAK
4,0.446,K88I (designed binder) SMEEEVEKAAKEYEKKKKEAIEKHLEKLKAKDKEAAERFLKELEEAAKEYAKDEAKTMSEEEAKRRAKKYKEKVLLSELSEEEQKEIIEAEEKLVRTILKYVEEAAK
5,0.79,K29L (designed binder) SMEEEVEKAAKEYEKKKKEAIEKHLEKLLAKDKEAAERFLKELEEAAKEYAKDEAKTMSEEEAKRRAKKYKEKVLLSELSEEEQKEIKEAEEKLVRTILKYVEEAAK
6,0.446,A9E (designed binder) SMEEEVEKEAKEYEKKKKEAIEKHLEKLKAKDKEAAERFLKELEEAAKEYAKDEAKTMSEEEAKRRAKKYKEKVLLSELSEEEQKEIKEAEEKLVRTILKYVEEAAK
7,1.4,I98R (designed binder) SMEEEVEKAAKEYEKKKKEAIEKHLEKLKAKDKEAAERFLKELEEAAKEYAKDEAKTMSEEEAKRRAKKYKEKVLLSELSEEEQKEIKEAEEKLVRTRLKYVEEAAK
8,2.73,S80N (designed binder) SMEEEVEKAAKEYEKKKKEAIEKHLEKLKAKDKEAAERFLKELEEAAKEYAKDEAKTMSEEEAKRRAKKYKEKVLLSELNEEEQKEIKEAEEKLVRTILKYVEEAAK
9,2.73,E45T (designed binder) SMEEEVEKAAKEYEKKKKEAIEKHLEKLKAKDKEAAERFLKELETAAKEYAKDEAKTMSEEEAKRRAKKYKEKVLLSELSEEEQKEIKEAEEKLVRTILKYVEEAAK
10,0.49,K27F (designed binder) SMEEEVEKAAKEYEKKKKEAIEKHLEFLKAKDKEAAERFLKELEEAAKEYAKDEAKTMSEEEAKRRAKKYKEKVLLSELSEEEQKEIKEAEEKLVRTILKYVEEAAK
11,0.446,T97D (designed binder) SMEEEVEKAAKEYEKKKKEAIEKHLEKLKAKDKEAAERFLKELEEAAKEYAKDEAKTMSEEEAKRRAKKYKEKVLLSELSEEEQKEIKEAEEKLVRDILKYVEEAAK
12,0.956,A90K (designed binder) SMEEEVEKAAKEYEKKKKEAIEKHLEKLKAKDKEAAERFLKELEEAAKEYAKDEAKTMSEEEAKRRAKKYKEKVLLSELSEEEQKEIKEKEEKLVRTILKYVEEAAK
13,0.956,K8H (designed binder) SMEEEVEHAAKEYEKKKKEAIEKHLEKLKAKDKEAAERFLKELEEAAKEYAKDEAKTMSEEEAKRRAKKYKEKVLLSELSEEEQKEIKEAEEKLVRTILKYVEEAAK
14,4.39,I98E (designed binder) SMEEEVEKAAKEYEKKKKEAIEKHLEKLKAKDKEAAERFLKELEEAAKEYAKDEAKTMSEEEAKRRAKKYKEKVLLSELSEEEQKEIKEAEEKLVRTELKYVEEAAK
15,18.3,M58W (designed binder) SMEEEVEKAAKEYEKKKKEAIEKHLEKLKAKDKEAAERFLKELEEAAKEYAKDEAKTWSEEEAKRRAKKYKEKVLLSELSEEEQKEIKEAEEKLVRTILKYVEEAAK
16,0.49,K88L (designed binder) SMEEEVEKAAKEYEKKKKEAIEKHLEKLKAKDKEAAERFLKELEEAAKEYAKDEAKTMSEEEAKRRAKKYKEKVLLSELSEEEQKEILEAEEKLVRTILKYVEEAAK
17,0.446,A36M (designed binder) SMEEEVEKAAKEYEKKKKEAIEKHLEKLKAKDKEAMERFLKELEEAAKEYAKDEAKTMSEEEAKRRAKKYKEKVLLSELSEEEQKEIKEAEEKLVRTILKYVEEAAK
18,1.69,T97L (designed binder) SMEEEVEKAAKEYEKKKKEAIEKHLEKLKAKDKEAAERFLKELEEAAKEYAKDEAKTMSEEEAKRRAKKYKEKVLLSELSEEEQKEIKEAEEKLVRLILKYVEEAAK
19,10.4,E49K (designed binder) SMEEEVEKAAKEYEKKKKEAIEKHLEKLKAKDKEAAERFLKELEEAAKKYAKDEAKTMSEEEAKRRAKKYKEKVLLSELSEEEQKEIKEAEEKLVRTILKYVEEAAK
20,1.05,K31E (designed binder) SMEEEVEKAAKEYEKKKKEAIEKHLEKLKAEDKEAAERFLKELEEAAKEYAKDEAKTMSEEEAKRRAKKYKEKVLLSELSEEEQKEIKEAEEKLVRTILKYVEEAAK
21,11.4,Q84A (designed binder) SMEEEVEKAAKEYEKKKKEAIEKHLEKLKAKDKEAAERFLKELEEAAKEYAKDEAKTMSEEEAKRRAKKYKEKVLLSELSEEEAKEIKEAEEKLVRTILKYVEEAAK
22,0.593,E26R (designed binder) SMEEEVEKAAKEYEKKKKEAIEKHLRKLKAKDKEAAERFLKELEEAAKEYAKDEAKTMSEEEAKRRAKKYKEKVLLSELSEEEQKEIKEAEEKLVRTILKYVEEAAK
23,0.446,L40S (designed binder) SMEEEVEKAAKEYEKKKKEAIEKHLEKLKAKDKEAAERFSKELEEAAKEYAKDEAKTMSEEEAKRRAKKYKEKVLLSELSEEEQKEIKEAEEKLVRTILKYVEEAAK
24,1.16,K8T (designed binder) SMEEEVETAAKEYEKKKKEAIEKHLEKLKAKDKEAAERFLKELEEAAKEYAKDEAKTMSEEEAKRRAKKYKEKVLLSELSEEEQKEIKEAEEKLVRTILKYVEEAAK
25,0.593,K41H (designed binder) SMEEEVEKAAKEYEKKKKEAIEKHLEKLKAKDKEAAERFLHELEEAAKEYAKDEAKTMSEEEAKRRAKKYKEKVLLSELSEEEQKEIKEAEEKLVRTILKYVEEAAK
26,0.593,E83K (designed binder) SMEEEVEKAAKEYEKKKKEAIEKHLEKLKAKDKEAAERFLKELEEAAKEYAKDEAKTMSEEEAKRRAKKYKEKVLLSELSEEKQKEIKEAEEKLVRTILKYVEEAAK
